Tests used:
[1] = substrate: CC(=O)N[C@@H](CC(=O)O)C(=O)N[C@@H](C)C(=O)N[C@@H](CC(=O)O)C(=O)N[C@@H](CCC(=O)O)C(=O)N[C@@H](Cc1ccc(OP(=O)(O)O)cc1)C(=O)N[C@@H](CC(C)C)C(N)=O; experiment: (§1) Binding affinity constant against mammalian protein-tyrosine phosphatase 1 (PTP1)
[2] = substrate: CC(=O)N[C@@H](CC(=O)O)C(=O)N[C@@H](C)C(=O)N[C@@H](CC(=O)O)C(=O)N[C@@H](CCC(=O)O)C(=O)N[C@@H](Cc1ccc(OP(=O)(O)O)cn1)C(=O)N[C@@H](CC(C)C)C(N)=O; experiment: as §1

B1: Tyrosine-protein phosphatase non-receptor type 1 (Homo sapiens), P18031 (protein)
chain: MEMEKEFEQIDKSGSWAAIYQDIRHEASDFPCRVAKLPKNKNRNRYRDVSPFDHSRIKLHQEDNDYINASLIKMEEAQRSYILTQGPLPNTCGHFWEMVWEQKSRGVVMLNRVMEKGSLKCAQYWPQKEEKEMIFEDTNLKLTLISEDIKSYYTVRQLELENLTTQETREILHFHYTTWPDFGVPESPASFLNFLFKVRESGSLSPEHGPVVVHCSAGIGRSGTFCLADTCLLLMDKRKDPSSVDIKKVLLEMRKFRMGLIQTADQLRFSYLAVIEGAKFIMGDSSVQDQWKELSHEDLEPPPEHIPPPPRPPKRILEPHNGKCREFFPNHQWVKEETQEDKDCPIKEEKGSPLNAAPYGIESMSQDTEVRSRVVGGSLRGAQAASPAKGEPSLPEKDEDHALSYWKPFLVNMCVATVLTAGAYLCYRFLFNSNT
B1 was tested, and the Km [1] was 3.6 µM and the Km [2] was 210 µM.
